Assay results as given in IntAct's records for PubMed 25772236.

B1: E1B 55 kDa protein (Human adenovirus C serotype 5 (HAdV-5)), P03243-1 (parent)
chain: MERRNPSERGVPAGFSGHASVESGCETQESPATVVFRPPGDNTDGGAAAAAGGSQAAAAGAEPMEPESRPGPSGMNVVQVAELYPELRRILTITEDGQGLKGVKRERGACEATEEARNLAFSLMTRHRPECITFQQIKDNCANELDLLAQKYSIEQLTTYWLQPGDDFEEAIRVYAKVALRPDCKYKISKLVNIRNCCYISGNGAEVEIDTEDRVAFRCSMINMWPGVLGMDGVVIMNVRFTGPNFSGTVFLANTNLILHGVSFYGFNNTCVEAWTDVRVRGCAFYCCWKGVVCRPKSRASIKKCLFERCTLGILSEGNSRVRHNVASDCGCFMLVKSVAVIKHNMVCGNCEDRASQMLTCSDGNCHLLKTIHVASHSRKAWPVFEHNILTRCSLHLGNRRGVFLPYQCNLSHTKILLEPESMSKVNLNGVFDMTMKIWKVLRYDETRTRCRPCECGGKHIRNQPVMLDVTEELRPDHLVLACTRAEFGSSDEDTD
B2: E1B 55 kDa protein (Human adenovirus C serotype 5 (HAdV-5)), P03243-1 (parent)
chain: B1 chain
partner: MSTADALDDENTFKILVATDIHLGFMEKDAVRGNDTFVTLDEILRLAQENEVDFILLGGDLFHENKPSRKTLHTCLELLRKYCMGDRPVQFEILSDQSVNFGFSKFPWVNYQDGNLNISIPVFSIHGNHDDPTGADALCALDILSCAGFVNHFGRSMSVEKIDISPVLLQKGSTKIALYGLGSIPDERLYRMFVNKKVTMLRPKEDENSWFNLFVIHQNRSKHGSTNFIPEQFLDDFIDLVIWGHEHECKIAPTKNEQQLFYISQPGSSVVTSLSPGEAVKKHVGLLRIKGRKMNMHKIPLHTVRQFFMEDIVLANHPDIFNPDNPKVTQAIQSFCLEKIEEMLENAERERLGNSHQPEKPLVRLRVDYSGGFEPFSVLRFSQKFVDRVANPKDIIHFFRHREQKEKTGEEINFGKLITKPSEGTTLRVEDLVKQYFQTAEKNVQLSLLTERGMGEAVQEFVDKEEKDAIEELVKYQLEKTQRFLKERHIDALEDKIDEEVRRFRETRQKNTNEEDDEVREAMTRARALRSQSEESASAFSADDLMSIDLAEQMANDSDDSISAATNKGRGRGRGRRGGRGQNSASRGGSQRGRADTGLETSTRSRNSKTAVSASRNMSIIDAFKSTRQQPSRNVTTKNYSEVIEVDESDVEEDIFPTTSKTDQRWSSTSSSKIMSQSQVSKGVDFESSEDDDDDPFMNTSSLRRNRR

Variants of: B1
Settings: with PML

Variant	effect of a mutation on the interaction
R448A;T449A;R450A	disrupting interaction strength

Variants of: B1
Settings: with PML
Remark: another data set of the same source

Variant	effect of a mutation on the interaction
R443A	decreasing interaction strength
K104R	decreasing interaction strength

Variants of: B1
Settings: with DAXX

Variant	effect of a mutation on the interaction
R443A	decreasing interaction strength

Variants of: B2
Settings: with mre11_human MRE11, P49959

Variant	effect of a mutation on the interaction
K104R	decreasing interaction strength
